According to US20240301049A1 (Ablynx, published 2024):
Values joined by “and” are separate entries in the source; they are usually repeats but may differ in a detail not shown here. Equal entries are not always repeated.

What was measured:
human TNF-α [1] = target: T1, human TNF-α (human, UniProt P01375 77-233); test: cell-based or functional assay
cyno TNF-α [2] = target: T2, cyno TNF-α (cynomolgus monkey, UniProt P79337 77-233); test: cell-based or functional assay
cyno IL-6 [3] = target: T3, cyno IL-6 (cynomolgus monkey, UniProt P79341 28-212, limits assumed); test: cell-based or functional assay
T3 sequence (looked up): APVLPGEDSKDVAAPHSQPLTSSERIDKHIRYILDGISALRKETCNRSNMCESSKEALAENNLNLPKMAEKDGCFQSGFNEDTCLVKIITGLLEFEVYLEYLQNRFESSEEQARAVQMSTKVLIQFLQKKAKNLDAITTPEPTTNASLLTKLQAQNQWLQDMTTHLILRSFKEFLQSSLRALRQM

human IL-6 [4] = target: T4, human IL-6 (human, UniProt P05231 30-212); test: cell-based or functional assay
human TNF-α [5] = target: T1, human TNF-α; test: cell-based or functional assay; remark: listed apart in the source
cyno TNF-α [6] = target: T2, cyno TNF-α; test: cell-based or functional assay; remark: listed apart in the source
cyno IL-6 [7] = target: T3, cyno IL-6; test: cell-based or functional assay; remark: listed apart in the source
human IL-6 [8] = target: T4, human IL-6; test: cell-based or functional assay; remark: listed apart in the source
human TNF-α [9] = target: T1, human TNF-α; test: cell-based or functional assay; remark: listed apart in the source
cyno TNF-α [10] = target: T2, cyno TNF-α; test: cell-based or functional assay; remark: listed apart in the source
cyno IL-6 [11] = target: T3, cyno IL-6; test: cell-based or functional assay; remark: listed apart in the source
cyno IL-6 [12] = target: T3, cyno IL-6; test: cell-based or functional assay; remark: listed apart in the source
human IL-6 [13] = target: T4, human IL-6; test: cell-based or functional assay; remark: listed apart in the source
human TNF-α [14] = target: T1, human TNF-α; test: cell-based or functional assay; remark: listed apart in the source
cyno TNF-α [15] = target: T2, cyno TNF-α; test: cell-based or functional assay; remark: listed apart in the source
human IL-6 [16] = target: T4, human IL-6; test: in-solution affinity, Gyrolab
Experimental: (§1) Fitting of the dilution series was done using Gyrolab Analysis software, where KD- and receptor-controlled curves were analyzed to determine the KD value.

mouse serum albumin = target: T5, mouse serum albumin (mouse, UniProt P07724 25-608); test: in-solution affinity, Gyrolab
T5 construct: also called mouse SA
Experimental: as §1

human TNF-α [17] = target: T1, human TNF-α; test: in-solution affinity, Gyrolab
Experimental: as §1

cyno TNF-α [18] = target: T2, cyno TNF-α; test: in-solution affinity, Gyrolab
Experimental: as §1

cyno serum albumin = target: T6, cyno serum albumin (cynomolgus monkey, UniProt A2V9Z4 25-608); test: in-solution affinity, Gyrolab
T6 construct: also called cyno SA
T6 sequence (A2V9Z4 25-608 limits assumed): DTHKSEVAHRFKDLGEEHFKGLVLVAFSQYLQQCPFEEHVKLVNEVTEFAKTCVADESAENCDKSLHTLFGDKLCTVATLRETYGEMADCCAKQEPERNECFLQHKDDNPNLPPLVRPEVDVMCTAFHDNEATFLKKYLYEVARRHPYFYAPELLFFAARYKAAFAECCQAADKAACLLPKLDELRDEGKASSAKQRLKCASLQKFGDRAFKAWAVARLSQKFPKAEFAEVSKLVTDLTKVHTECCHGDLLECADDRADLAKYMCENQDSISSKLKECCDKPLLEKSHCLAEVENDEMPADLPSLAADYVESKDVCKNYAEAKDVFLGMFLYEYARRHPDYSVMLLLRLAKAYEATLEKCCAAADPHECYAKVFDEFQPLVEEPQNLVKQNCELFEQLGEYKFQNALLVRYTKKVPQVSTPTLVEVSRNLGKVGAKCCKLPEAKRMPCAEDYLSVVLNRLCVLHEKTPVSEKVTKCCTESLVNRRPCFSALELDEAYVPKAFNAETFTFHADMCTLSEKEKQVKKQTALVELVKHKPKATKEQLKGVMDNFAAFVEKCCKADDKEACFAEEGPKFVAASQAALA
Experimental: as §1

human serum albumin = target: T7, human serum albumin (human, UniProt P02768 25-609); test: in-solution affinity, Gyrolab
T7 construct: also called HSA; human SA
T7 sequence (P02768 25-609 limits assumed): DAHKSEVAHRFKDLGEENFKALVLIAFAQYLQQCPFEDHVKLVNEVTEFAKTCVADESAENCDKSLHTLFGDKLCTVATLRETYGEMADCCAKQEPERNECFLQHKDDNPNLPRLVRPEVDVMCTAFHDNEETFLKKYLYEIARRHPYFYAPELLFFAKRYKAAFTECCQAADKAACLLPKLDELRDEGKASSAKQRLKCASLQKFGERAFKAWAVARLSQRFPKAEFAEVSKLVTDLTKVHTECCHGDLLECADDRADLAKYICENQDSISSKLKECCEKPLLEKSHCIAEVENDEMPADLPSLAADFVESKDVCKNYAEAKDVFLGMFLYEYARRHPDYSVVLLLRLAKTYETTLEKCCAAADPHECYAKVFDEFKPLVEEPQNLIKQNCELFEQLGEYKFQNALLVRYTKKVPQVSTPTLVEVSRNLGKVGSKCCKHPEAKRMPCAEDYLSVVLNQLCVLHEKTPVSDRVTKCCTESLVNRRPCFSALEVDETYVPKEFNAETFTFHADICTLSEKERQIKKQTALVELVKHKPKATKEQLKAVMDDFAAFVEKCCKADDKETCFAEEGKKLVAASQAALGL
Experimental: as §1

human CNTF = target: T8, human CNTF (human, UniProt P26441 2-200); test: SPR (ProteOn XPR36), target immobilized
T8 construct: also called ciliary neurotrophic factor
T8 sequence (looked up): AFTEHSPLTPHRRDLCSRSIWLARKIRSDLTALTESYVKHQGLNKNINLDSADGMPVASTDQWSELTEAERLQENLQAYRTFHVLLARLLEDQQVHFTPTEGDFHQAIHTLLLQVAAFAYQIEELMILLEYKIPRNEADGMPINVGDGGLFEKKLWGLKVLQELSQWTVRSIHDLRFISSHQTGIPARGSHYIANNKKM

human CD30L = target: T9, human CD30L (human, UniProt P32971 63-234, limits assumed); test: SPR (ProteOn XPR36), target immobilized
T9 sequence (looked up): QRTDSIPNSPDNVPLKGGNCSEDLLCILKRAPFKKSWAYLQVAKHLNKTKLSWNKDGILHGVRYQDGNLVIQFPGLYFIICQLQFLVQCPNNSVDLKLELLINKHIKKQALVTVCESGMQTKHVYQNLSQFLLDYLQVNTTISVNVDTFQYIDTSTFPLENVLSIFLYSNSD

human TRAIL = human TRAIL (human, UniProt P50591 114-281, limits assumed); test: SPR (ProteOn XPR36), target immobilized
Chain of human TRAIL (P50591 114-281 limits assumed): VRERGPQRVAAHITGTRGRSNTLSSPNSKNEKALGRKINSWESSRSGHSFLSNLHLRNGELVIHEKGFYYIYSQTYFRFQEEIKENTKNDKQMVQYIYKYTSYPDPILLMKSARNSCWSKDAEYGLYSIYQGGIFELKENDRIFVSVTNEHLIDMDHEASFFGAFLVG

human CD40L = target: T10, human CD40L (human, UniProt P29965 113-261, limits assumed); test: SPR (ProteOn XPR36), target immobilized
T10 sequence (looked up): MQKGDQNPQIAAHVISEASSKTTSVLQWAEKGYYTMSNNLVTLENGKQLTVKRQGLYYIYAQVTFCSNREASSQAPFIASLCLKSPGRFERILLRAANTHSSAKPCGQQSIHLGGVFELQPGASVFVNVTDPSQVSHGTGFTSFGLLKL

[19] = target: T11, human membrane TNFα expressed on HEK293H cells (human, UniProt P01375 1-233); test: flow cytometry, HEK293H cells expressing human membrane TNFα, with 30 µM HSA, 24 h
T11 construct: whole, on cells; also called membrane expressed TNFα
T11 sequence (P01375 whole entry): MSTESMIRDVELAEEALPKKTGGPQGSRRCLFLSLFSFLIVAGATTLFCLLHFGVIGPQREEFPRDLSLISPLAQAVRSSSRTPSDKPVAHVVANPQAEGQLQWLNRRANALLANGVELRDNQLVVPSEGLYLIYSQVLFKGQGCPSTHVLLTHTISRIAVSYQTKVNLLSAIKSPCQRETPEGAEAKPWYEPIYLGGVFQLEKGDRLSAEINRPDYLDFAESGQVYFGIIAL
Experimental: Briefly, cells were fixed with 4% paraformaldehyde and 0.1% glutaraldehyde in PBS (to increase detection of membrane bound TNFα). […] Cells were washed 3 times and subsequently incubated with an anti-VHH mAb (ABH00119) for 30 min at 4° C., washed again, and incubated for 30 min at 4° C. with a goat anti-mouse or anti-human PE labeled antibody. Samples were washed and resuspended in FACS Buffer (D-PBS with 10% FBS and 0.05% sodium azide supplemented with 5 nM TOPRO3). Cell suspensions were then analyzed on an iQuescreener. EC50 values were calculated using GraphPad Prism.

T2 sequence (P79337 77-233 limits assumed): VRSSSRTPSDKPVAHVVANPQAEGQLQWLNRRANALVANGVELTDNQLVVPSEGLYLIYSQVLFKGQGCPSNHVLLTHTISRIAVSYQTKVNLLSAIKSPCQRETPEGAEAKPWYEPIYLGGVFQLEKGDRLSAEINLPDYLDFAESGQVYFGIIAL
T1 sequence (P01375 77-233 limits assumed): as the sequence (P79337 77-233 limits assumed) above, with V37L, T44R, N72T, L138R counted along it

B1: F027201062 (bispecific antibody)
chain: DVQLVESGGGVVQPGGSLRLSCAASGRTFSNYAMAWFRQAPGKEREFVAVISYAGGRTYYADSVKGRFTISRDNAKNTVYLQMNSLRPEDTALYYCAAVDSPLIATHPRGYDYWGQGTLVTVSSGGGGSGGGSEVQLVESGGGVVQPGGSLRLSCAASGFTFRSFGMSWVRQAPGKGPEWVSSISGSGSDTLYADSVKGRFTISRDNSKNTLYLQMNSLRPEDTALYYCTIGGSLSRSSQGTLVTVSSGGGGSGGGSEVQLVESGGGVVQPGGSLRLSCAASGFTLAYYAIGWFRQAPGKEREGVSCISGSVGTTYYADSVKGRFTISRDNAKNTVYLQMNSLRPEDTALYYCVRSSWFDCGVQGRDLGNEYDYRGQGTLVTVSSGGGGSGGGSEVQLVESGGGVVQPGGSLRLSCTASGFTFSTADMGWFRQAPGKGREFVARISGIDGTTYYDEPVKGRFTISRDNSKNTVYLQMNSLRPEDTALYYCRSPRYADQWSAYDYWGQGTLVKVSSA
notes: anti-IL-6 (17C04, 6B12), anti-HSA (ALB23002), anti-TNF-α (6C11), C-terminal alanine; produced in Pichia pastoris; also called ISVD construct F027201062; Nanobody F027201062
IC50, HEK293_NFκB-NLucP reporter assay (human TNF-α [1]): 0.0757 nM and 0.0257 nM and 0.0586 nM
IC50, HEK293_NFκB-NLucP reporter assay (cyno TNF-α [2]): 0.16 nM and 0.0837 nM and 0.23 nM
cyno IL-6 TF1 proliferation assay (IC50, pM) (cyno IL-6 [3]): 65 pM
Ratio IC50 reference anti-IL-6 mAb1/Nb (human IL-6 [4]): 2.4 ratio
hIL-6 TF1 proliferation assay (IC50, pM) (human IL-6 [4]): 134 pM
Ratio IC50 reference anti-TNF-α mAb/Nb (human TNF-α [5]): 0.67 ratio
hTNF-α Nfkb assay (IC50, pM) (human TNF-α [5]): 98 pM
cyno TNF-α NFkb assay (IC50, pM) (cyno TNF-α [6]): 193 pM
average IC50, IL-6 induced TF-1 proliferation (cyno IL-6 [7]): 0.056 nM
IC50 of IL-17A/sIL-6R induced VEGF-A release, RA-FLS (human IL-6 [8]): 2 nM
average IC50, IL-6 induced TF-1 proliferation (human IL-6 [8]): 0.034 nM
IC50 of SEB-induced CCL4 release, human whole blood (human TNF-α [9]): 0.92 nM
IC50 of SEB-induced MCP-1 release, human whole blood (human TNF-α [9]): 3.2 nM
average IC50, NFκB reporter assay (human TNF-α [9]): 0.053 nM
average IC50, NFκB reporter assay (cyno TNF-α [10]): 0.158 nM
IC50, IL-6 induced TF-1 proliferation (cyno IL-6 [11]): 0.0646 nM and 0.0592 nM and 0.0434 nM
Ratio IC50 cyno IL-6/hIL-6 (cyno IL-6 [12]): 0.5 ratio
IC50 hIL-6 TF1 proliferation assay (human IL-6 [13]): 0.134 nM
IC50 hTNF-α Nfkb assay (human TNF-α [14]): 0.0978 nM
Ratio IC50 cyno TNFα/hTNFα (cyno TNF-α [15]): 2 ratio
Kd (human IL-6 [16]): 0.0073 nM and 0.0053 nM and 0.003 nM
Kd (mouse serum albumin): 58.5 nM and 62.2 nM and 56 nM
Kd (human TNF-α [17]): 0.0057 nM and 0.0052 nM and 0.0099 nM
Kd (cyno TNF-α [18]): 0.0538 nM and 0.0237 nM and 0.0259 nM
Kd (cyno serum albumin): 6.7 nM and 4.9 nM and 6.1 nM
Kd (human serum albumin): 7.6 nM and 6.4 nM and 6.2 nM
binding result (human CNTF): no binding (tested: 300 nM)
binding result (human CD30L): no binding (tested: 300 nM)
binding result (human TRAIL): no binding (tested: 300 nM)
binding result (human CD40L): no binding (tested: 300 nM)
EC50 [19]: 0.31 nM and 0.29 nM and 0.36 nM
